Results as given in publication PMC6608618, “Structures of three ependymin-related proteins suggest their function as a hydrophobic molecule binder” (IUCrJ, 2019).

How the values were obtained:
human EPDR1 = molecular target: T1, human EPDR1 (Homo sapiens, UniProt Q9UM22); assay: fluorescence increase titration (ex […] nm, em […] nm); assay type: binding
T1 construct: residues 38-224 without native signal peptide; N-terminal His8 tag, cleavage not mentioned; codon-optimised synthetic gene, pAcGP67A; secreted from Sf9 insect cells; homodimer in crystal; three intramolecular disulfides
T1 sequence (Q9UM22 38-224): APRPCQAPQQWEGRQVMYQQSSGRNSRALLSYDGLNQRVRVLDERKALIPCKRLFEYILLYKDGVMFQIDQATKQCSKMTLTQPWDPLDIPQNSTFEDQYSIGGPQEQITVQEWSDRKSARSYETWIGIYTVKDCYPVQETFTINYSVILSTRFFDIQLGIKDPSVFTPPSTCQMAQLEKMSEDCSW

[1] = molecular target: the molecule itself; assay: crystal structure; human EPDR1 crystals, hanging drop 22 C, 15-20% PEG 3350 with 0.1 M citric acid pH 4.5 or 0.2 M NaCl, 0.1 M bis-Tris pH 5.5; space group P4(3), four molecules in the asymmetric unit; interfaces judged by PISA
[2] = molecular target: the molecule itself; assay: crystal structure; mouse EPDR1 crystals, hanging drop 22 C, 0.5-1.0 M lithium sulfate, 0.5-1.0 M ammonium sulfate, 0.1 M sodium citrate pH 5.6; space group P2(1), four molecules in the asymmetric unit
[3] = molecular target: the molecule itself; assay: crystal structure; frog EPDR1 crystals, hanging drop 22 C, 15-20% PEG 8000, 0.2 M calcium acetate, 0.1 M sodium cacodylate pH 6.5; space group P6(5)22, one molecule in the asymmetric unit, dimer with a crystallographic symmetry mate

## O=S(=O)(O)c1cccc2cccc(Nc3ccccc3)c12 [1,8-ANS, 1-anilinonaphthalene-8-sulfonic acid]
Human EPDR1
  Kd: ~14 µM

B1: human EPDR1 (residues 38-224, N-terminal His8 tag) (natural protein, UniProt Q9UM22 38-224, looked up)
chain: APRPCQAPQQWEGRQVMYQQSSGRNSRALLSYDGLNQRVRVLDERKALIPCKRLFEYILLYKDGVMFQIDQATKQCSKMTLTQPWDPLDIPQNSTFEDQYSIGGPQEQITVQEWSDRKSARSYETWIGIYTVKDCYPVQETFTINYSVILSTRFFDIQLGIKDPSVFTPPSTCQMAQLEKMSEDCSW
modifications: glycosylation at the two predicted Asn sites only slightly perceivable, too disordered to be modeled
notes: human EPDR1, UniProt Q9UM22, residues 38-224, without the native N-terminal signal peptide; Three intramolecular disulfide bonds (Cys42-Cys172, Cys88-Cys222, Cys113-Cys210); also called mammalian ependymin-related protein 1; MERP1; source: Sf9 insect cells (baculovirus, pAcGP67A, secreted), purified (Ni-NTA, size-exclusion chromatography)
[1]
  stoichiometry N: 2

B2: mouse EPDR1 (residues 38-224, N-terminal His8 tag) (natural protein, UniProt Q99M71 38-224, looked up)
chain: TPQPCQAPQQWEGRQVLYQQSSGHNNRALVSYDGLNQRVRVLDERKALIPCKRLFEYILLYKEGVMFQIEQATKQCAKIPLVESWDPLDIPQNSTFEDQYSIGGPQEQILVQEWSDRRTARSYETWIGVYTAKDCYPVQETFIRNYTVVMSTRFFDVQLGIKDPSVFTPPSTCQAAQPEKMSDGCSL
modifications: N-glycosylation at Asn130 (one NAG) and at Asn182 (two NAGs and one fucose)
notes: mouse (Mus musculus) EPDR1, UniProt Q99M71, residues 38-224, without the native N-terminal signal peptide; Three intramolecular disulfide bonds; also called MERP1; source: Sf9 insect cells (baculovirus, pAcGP67A, secreted), purified (Ni-NTA, size-exclusion chromatography)
[2]
  stoichiometry N: 2

B3: frog EPDR1 (Xenopus tropicalis, residues 38-220, N-terminal His8 tag) (natural protein, UniProt F6VRB7 38-220, looked up)
chain: TPCEAPLQWEGRIVLYDHNTGKNTRATVTYDAILQRIRILEEKKSFVPCKRFFEYIFLYQEAVMFQIEQVTKICSKNTLTEPWDPYDIPENSTYEDQYYIGGPGDQIPVQEWSDRKPARKYETWVGVYTVKDCYPVQETYTKNDSMTTSTRFFDIKLGISDPSVFNPPSTCEAAQPLLMSGDC
modifications: glycosylation at the two predicted Asn sites only slightly perceivable, too disordered to be modeled
notes: frog (Xenopus tropicalis) EPDR1, NCBI XP_002939463, residues 38-220, without the native N-terminal signal peptide; Three intramolecular disulfide bonds; source: Sf9 insect cells (baculovirus, pAcGP67A, secreted), purified (Ni-NTA, size-exclusion chromatography)
[3]
  stoichiometry N: 2
